Measured values: publication PMC7135997, “Cardiac myosin regulatory light chain kinase modulates cardiac contractility by phosphorylating both myosin regulatory light chain and troponin I” (The Journal of Biological Chemistry, 2020)

Assays:
rat cardiac troponin I = target: T1, rat cardiac troponin I (rat, UniProt P23693 1-211); experiment: SEC-MALS; complex reconstituted from the three separately purified subunits mixed 1:1:1 in 6 mol/liter urea, dialysed, purified on Resource-Q; Superdex 200 5/150 GL in 50 mmol/liter Tris-HCl (pH 7.4), 5 mM MgCl2, 1 mmol/liter CaCl2, 100 mM NaCl, 100 mmol/liter tris(2-carboxyethyl)phosphine; also characterized by HPLC and ESI-MS; conditions: both partners purified
T1 construct: cardiac troponin I, rat, cloned from a rat heart cDNA library into pET3a, codon-optimized; No tag is named; unphosphorylated recombinant protein; also called rcTnI; rat cTnI; source: E. coli BL21(DE3)-RIPL, inclusion bodies, purified (CM Sepharose in 6 mol/liter urea)

rat cardiac troponin C = rat cardiac troponin C (rat, UniProt Q4PP99 1-161); experiment: as above; conditions: both partners purified

T1 sequence (P23693 whole entry): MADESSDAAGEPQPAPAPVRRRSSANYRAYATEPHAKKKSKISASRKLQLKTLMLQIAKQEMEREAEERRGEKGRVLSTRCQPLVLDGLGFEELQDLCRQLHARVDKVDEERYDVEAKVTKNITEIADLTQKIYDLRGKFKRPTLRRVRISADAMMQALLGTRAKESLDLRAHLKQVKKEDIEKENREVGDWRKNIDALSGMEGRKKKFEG

B1: rat cardiac troponin T (natural protein)
chain: not shown
notes: cardiac troponin T, rat, cloned from a rat heart cDNA library into pET3a, codon-optimized; also called rat cTnT; rcTnT; source: E. coli BL21(DE3)-RIPL, soluble fraction, purified (ion exchange, similar method to rcTnI)
- stoichiometry N (rat cardiac troponin I): 1
- stoichiometry N (rat cardiac troponin C): 1
